Data set [1] deals with T1, HIV-1 reverse transcriptase p66/p51, wild-type (HIV-1, UniProt P04585;P04585 588-1147;588-1027). The data set is described as follows: EMSA; EFV titrated (ligand Kd); Bmax 5.53%; DEC binding buffer not in the material; 6% non-denaturing PAGE; DEC defined as resistant to excess competitor template; primer/template annealed 1:1.3 in 50 mM. The settings on record: protein: recombinant; tags: N-terminal 6-His; copies: 1;1; label: 5'-32P primer; template overhangs: 5' 8 nt, 3' 8 nt. In general terms: In EMSA bound probe runs differently from free probe, usually more slowly.

Data set [2] deals with T1, HIV-1 reverse transcriptase p66/p51, …. Description: EMSA; EFV titrated (ligand Kd); Bmax 14.9%; DEC binding buffer not in the material; 6% non-denaturing PAGE; DEC defined as resistant to excess competitor template; primer/template annealed 1:1.3 in 50 mM. The settings on record: protein: recombinant; tags: N-terminal 6-His; copies: 1;1; label: 5'-32P primer; template overhangs: 5' 8 nt, 3' 8 nt.

Data set [3] shares this target. The data set is described as follows: EMSA; dATP titrated (ligand Kd); Bmax 38.0%; DEC binding buffer not in the material; 6% non-denaturing PAGE; DEC defined as resistant to excess competitor template; primer/template annealed 1:1.3 in 50 mM. The note with it: protein: recombinant; tags: N-terminal 6-His; copies: 1;1; label: 5'-32P primer; template overhangs: 5' 8 nt, 3' 8 nt.

Data set [4] shares this target. Description: EMSA; TFV-DP titrated (ligand Kd); Bmax 15.3%; DEC binding buffer not in the material; 6% non-denaturing PAGE; DEC defined as resistant to excess competitor template; primer/template annealed 1:1.3 in 50 mM. The settings on record: protein: recombinant; tags: N-terminal 6-His; copies: 1;1; label: 5'-32P primer; template overhangs: 5' 8 nt, 3' 8 nt.
Data set [5] has the same target. The data set is described as follows: EMSA; EFV titrated (ligand Kd); Bmax 11.2%; DEC binding buffer not in the material; 6% non-denaturing PAGE; DEC defined as resistant to excess competitor template; primer/template annealed 1:1.3 in 50 mM. The settings on record: protein: recombinant; tags: N-terminal 6-His; copies: 1;1; label: 5'-32P primer; template 5' overhang 24 nt, other end blunt.

For data set [6] the target is unchanged. The data set is described as follows: EMSA; dCTP titrated (ligand Kd); Bmax 55.8%; DEC binding buffer not in the material; 6% non-denaturing PAGE; DEC defined as resistant to excess competitor template; primer/template annealed 1:1.3 in 50 mM. The note with it: protein: recombinant; tags: N-terminal 6-His; copies: 1;1; label: 5'-32P primer; template 5' overhang 24 nt, other end blunt.

Data set [7] shares this target. Description: EMSA; FTC-TP titrated (ligand Kd); Bmax 60.2%; DEC binding buffer not in the material; 6% non-denaturing PAGE; DEC defined as resistant to excess competitor template; primer/template annealed 1:1.3 in 50 mM. The note with it: protein: recombinant; tags: N-terminal 6-His; copies: 1;1; label: 5'-32P primer; template 5' overhang 24 nt, other end blunt.
The target is the same in data set [8]. Description: EMSA; EFV titrated (ligand Kd); Bmax 3.96%; DEC binding buffer not in the material; 6% non-denaturing PAGE; DEC defined as resistant to excess competitor template; primer/template annealed 1:1.3 in 50 mM. The settings on record: protein: recombinant; tags: N-terminal 6-His; copies: 1;1; label: 5'-32P primer; template 5' overhang 23 nt, other end blunt.

Data set [9] has the same target. The data set is described as follows: EMSA; dATP titrated (ligand Kd); Bmax 60%; DEC binding buffer not in the material; 6% non-denaturing PAGE; DEC defined as resistant to excess competitor template; primer/template annealed 1:1.3 in 50 mM. The note with it: protein: recombinant; tags: N-terminal 6-His; copies: 1;1; label: 5'-32P primer; template 5' overhang 23 nt, other end blunt.

Data set [10] has the same target. The data set is described as follows: EMSA; EFV titrated (ligand Kd); Bmax 10.6%; DEC binding buffer not in the material; 6% non-denaturing PAGE; DEC defined as resistant to excess competitor template; primer/template annealed 1:1.3 in 50 mM. The settings on record: protein: recombinant; tags: N-terminal 6-His; copies: 1;1; label: 5'-32P primer; template 5' overhang 23 nt, other end blunt.

The target is the same in data set [11]. Description: EMSA; TFV-DP titrated (ligand Kd); Bmax 55%; DEC binding buffer not in the material; 6% non-denaturing PAGE; DEC defined as resistant to excess competitor template; primer/template annealed 1:1.3 in 50 mM. The settings on record: protein: recombinant; tags: N-terminal 6-His; copies: 1;1; label: 5'-32P primer; template 5' overhang 23 nt, other end blunt.

Data set [12] has the same target. Description: EMSA; dCTP titrated (ligand Kd); Bmax 50.0%; DEC binding buffer not in the material; 6% non-denaturing PAGE; DEC defined as resistant to excess competitor template; primer/template annealed 1:1.3 in 50 mM. The note with it: protein: recombinant; tags: N-terminal 6-His; copies: 1;1; label: 5'-32P primer; template 5' overhang 24 nt, other end blunt.
Data set [13] shares this target. Description: EMSA; FTC-TP titrated (ligand Kd); Bmax 50.0%; DEC binding buffer not in the material; 6% non-denaturing PAGE; DEC defined as resistant to excess competitor template; primer/template annealed 1:1.3 in 50 mM. The note with it: protein: recombinant; tags: N-terminal 6-His; copies: 1;1; label: 5'-32P primer; template 5' overhang 24 nt, other end blunt.
For data set [14] the target is unchanged. Description: EMSA; EFV titrated (ligand Kd); Bmax 44.4%; DEC binding buffer not in the material; 6% non-denaturing PAGE; DEC defined as resistant to excess competitor template; primer/template annealed 1:1.3 in 50 mM. The settings on record: protein: recombinant; tags: N-terminal 6-His; copies: 1;1; label: 5'-32P primer; template 5' overhang 24 nt, other end blunt.

B1: D20/D36C, FTC-MP-terminated (dsDNA)
DNA 1: GTCCCTGTTCGGGCGCCACC
DNA 2: TCTCTAATGGTGGCGCCCGAACAGGGACCTGAAAGC
modifications: 3'-terminal C of primer is emtricitabine-MP
On to B1, for which the “apparent K (half saturation)” value in data set [1] is 1540 ± 330 nM.

B2: D20/D36C, ddCMP-terminated (dsDNA)
DNA 1: GTCCCTGTTCGGGCGCCACC
DNA 2: TCTCTAATGGTGGCGCCCGAACAGGGACCTGAAAGC
modifications: 3'-terminal C of primer is ddCMP
As to B2, the results for the “apparent K (half saturation)” value in data set [2], in data set [3] and in [4] were 1030 ± 250 nM, 16.9 ± 8.5 µM and 445 ± 114 µM, respectively.

B3: D26/D50, ddAMP-terminated (dsDNA)
DNA 1: CTGAGACAACATCTGCTGAGGTAGGA
DNA 2: TGTCGTGTGGTGTCGTGTGGTATGTCCTACCTCAGCAGATGTTGTCTCAG
modifications: 3'-terminal A of primer is ddAMP
Take B3: the “apparent K (half saturation)” value in [5] stood at 2420 ± 1100 nM; in [6], 8.1 ± 2.1 µM; in [7] it was 86.8 ± 0.2 µM.

B4: D27/D50, FTC-MP-terminated (dsDNA)
DNA 1: CTGAGACAACATCTGCTGAGGTAGGAC
DNA 2: TGTCGTGTGGTGTCGTGTGGTATGTCCTACCTCAGCAGATGTTGTCTCAG
modifications: 3'-terminal C of primer is emtricitabine-MP
As for B4, the “apparent K (half saturation)” value in data set [8] is 1260 ± 240 nM.

B5: D27/D50, ddCMP-terminated (dsDNA)
DNA 1: CTGAGACAACATCTGCTGAGGTAGGAC
DNA 2: TGTCGTGTGGTGTCGTGTGGTATGTCCTACCTCAGCAGATGTTGTCTCAG
modifications: 3'-terminal C of primer is ddCMP
As for B5, the “apparent K (half saturation)” value stood at 6.5 ± 2.6 µM in data set [9], 110 ± 60 nM in [10] and 140 ± 19 µM in [11].

B6: D26/D50, TFV-terminated (dsDNA)
DNA 1: CTGAGACAACATCTGCTGAGGTAGGA
DNA 2: TGTCGTGTGGTGTCGTGTGGTATGTCCTACCTCAGCAGATGTTGTCTCAG
modifications: 3'-terminal A of primer is tenofovir (chain terminator)
As to B6, the “apparent K (half saturation)” value in [12] came out at 179 ± 33 µM; in data set [13] it was 46.5 ± 7.8 µM; in [14] it was 1220 ± 280 nM.

The values above are taken from PMC2693498, “The triple combination of tenofovir, emtricitabine and efavirenz shows synergistic anti-HIV-1 activity in vitro: a mechanism of action study”.
